One molecule from paper PMC12561415, “ACSS2/AATF Drives Soluble FasL‐Mediated CD8^+ T Cell Apoptosis in Pancreatic Neuroendocrine Tumors” (Advanced Science, 2025) can be followed below.

This assay addresses T1, Recombinant human ACSS2 (human, UniProt Q9NR19 1-701).
T1 construct: Recombinant human ACSS2, immobilised on a CM5 chip for SPR
Briefly: SPR; Biacore 8K, 25 °C, HBS-EP running buffer; ACSS2 amine-coupled to a CM5 chip (5 µg/mL in 10 mM sodium acetate pH 5.5); AATF injected at 12.5-400 nM; multi-cycle, 120 s association, 120 s dissociation, 30 µL/min. Particulars: both partners purified.

T1 sequence (Q9NR19 whole entry): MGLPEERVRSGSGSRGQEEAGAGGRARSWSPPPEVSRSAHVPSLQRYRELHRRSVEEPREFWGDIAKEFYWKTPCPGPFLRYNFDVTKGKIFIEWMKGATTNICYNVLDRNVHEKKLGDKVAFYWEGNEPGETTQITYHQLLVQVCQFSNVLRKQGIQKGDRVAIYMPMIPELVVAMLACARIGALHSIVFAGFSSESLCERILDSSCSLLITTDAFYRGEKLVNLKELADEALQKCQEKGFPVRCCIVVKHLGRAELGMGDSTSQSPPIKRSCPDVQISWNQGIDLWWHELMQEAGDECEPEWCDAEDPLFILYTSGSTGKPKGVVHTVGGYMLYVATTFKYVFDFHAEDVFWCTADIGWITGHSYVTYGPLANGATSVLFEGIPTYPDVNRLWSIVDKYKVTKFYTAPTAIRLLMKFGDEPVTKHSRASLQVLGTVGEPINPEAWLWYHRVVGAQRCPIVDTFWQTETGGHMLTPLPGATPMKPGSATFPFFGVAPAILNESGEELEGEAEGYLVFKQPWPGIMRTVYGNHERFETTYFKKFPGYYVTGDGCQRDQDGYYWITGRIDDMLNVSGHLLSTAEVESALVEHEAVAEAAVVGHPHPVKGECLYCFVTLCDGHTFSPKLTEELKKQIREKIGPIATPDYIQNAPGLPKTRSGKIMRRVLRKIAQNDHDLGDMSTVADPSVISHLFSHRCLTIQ

B1: Recombinant human AATF (natural protein, UniProt Q9NY61 1-560, looked up)
chain: MAGPQPLALQLEQLLNPRPSEADPEADPEEATAARVIDRFDEGEDGEGDFLVVGSIRKLASASLLDTDKRYCGKTTSRKAWNEDHWEQTLPGSSDEEISDEEGSGDEDSEGLGLEEYDEDDLGAAEEQECGDHRESKKSRSHSAKTPGFSVQSISDFEKFTKGMDDLGSSEEEEDEESGMEEGDDAEDSQGESEEDRAGDRNSEDDGVVMTFSSVKVSEEVEKGRAVKNQIALWDQLLEGRIKLQKALLTTNQLPQPDVFPLFKDKGGPEFSSALKNSHKALKALLRSLVGLQEELLFQYPDTRYLVDGTKPNAGSEEISSEDDELVEEKKQQRRRVPAKRKLEMEDYPSFMAKRFADFTVYRNRTLQKWHDKTKLASGKLGKGFGAFERSILTQIDHILMDKERLLRRTQTKRSVYRVLGKPEPAAQPVPESLPGEPEILPQAPANAHLKDLDEEIFDDDDFYHQLLRELIERKTSSLDPNDQVAMGRQWLAIQKLRSKIHKKVDRKASKGRKLRFHVLSKLLSFMAPIDHTTMNDDARTELYRSLFGQLHPPDEGHGD
notes: Recombinant human AATF, the analyte in SPR; also called Che-1
As to B1, the Kd is 33.3 ± 1.7 nM.
